Assay: yeast display, Sf9 membrane polyspecificity reagent, FACS + sequencing; frameworks hold sequencing errors
Summary of the method: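 Synthetic nanobody libraries on Saccharomyces cerevisiae BJ5465 were galactose-induced for 36–48 hours, stained 1 hour at 4 °C with 10% biotinylated, detergent-solubilized Sf9 membrane reagent and enriched on streptavidin microbeads. FACS then separated cells into low and high (top ~1%) gates by anti-HA (expression) and streptavidin (reagent binding) fluorescence. Genes were colony-PCR amplified, MiSeq 2 × 250 sequenced and CDR-length filtered. A clone's polyreactivity label is that of its gate of origin.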

| Sequence | polyreactivity (PSR sort gate) |
| --- | --- |
| QVQLVESGGGLVQAGGSLRLSCAASGSIFDVNTMGWYRQAPGKERELVASITSSGSTYYADSVKGRFTISRDNAKNTVYLQMNSLKPEDTAVYYCAAASGGTVVGEGDYWGQGSQVTVSS | low polyreactivity |
| QVQLVESGGGLVQAGGSLRLSCAASGSIFDVYAMGWYRPAPGKERELVATISYGDSSTYYADSVKGRFTISRDNAKNTVYFQMNSLKPEDTAVYYCAADYLTAPRWRLLGEMEYWGQGTQVTVSS | low polyreactivity |
| QVQLVESGGGLVQAGGSLRLSCAASGSIFDVYAMGWYRQAPGKERELVARITWSGGSTYYADSVKGRFTISRDNAKNTVYLQMTSLKPEDTAVYYCNVDQVHPTRGLDYWGQGTQVTVSS | low polyreactivity |
| QVQLVESGGGLVQAGGSLRLSCAASGSIFDWYAMGWYRQAPGKEGELVAAISSGDSTYYADSVKGRFTISRDNAKNTVYLQMNSLKPEYTAVYYCAAVTKLSGIRYNYWGQGTQVTVSS | low polyreactivity |
| QVQLVESGGGLVQAGGSLRLSCAASGSIFDYNAKGWYRPAPGKERELVASISGDSGSTYYADSVKGRFTISRDNAKNTVYLQMNSLKPEDTAVYYCAAPYVSWDYRYYYWGQGTQVTVSS | low polyreactivity |
| QVQLVESGGGLVQAGGSLRLSCAASGSIFDYNAMGWYRQAPGKERELVAAISGSGVRTYYADSVKGRFTISRDNAKNTVYLQMNSLKPEDTAVYYCAAAVGRPRREYDYWGQGTQVTVSS | high polyreactivity |
| QVQLVESGGGLVQAGGSLRLSCAASGSIFDYNAMGWYRQAPGKERELVAAISSGGSTNYADSVKGRFTISRDNAKNTVYLQMNSLKPEDTAVYYCNTGLYWLGYWPDDYWGQGTQVTVSS | low polyreactivity |
| QVQLVESGGGLVQAGGSLRLSCAASGSIFDYNAMGWYRQAPGKERELVAAISVNGGNTYYADSVKGRFTISRDNAKNTVYLQMNSLKPEDTAVYYCAADSYGGSKYDYWGQGTQVTVSS | low polyreactivity |
| QVQLVESGGGLVQAGGSLRLSCAASGSIFDYNAMGWYRQAPGKERELVASIRWSGGRTYYADSVKGRFTISRDNAKNTVYLQMNSLKPEDTAVYYCNKGLFSTGNIPYYLIVYLEYNYWGQGTQVTVSS | low polyreactivity |
| QVQLVESGGGLVQAGGSLRLSCAASGSIFDYNAMGWYRQAPGKEREYVAANTWGSGSTYYADSVKGRFTNSRDNAKNTVYLQMNSLKPEDTAVYYCNADDYGGSTGRKGRYNYWGQGTQVTVSS | low polyreactivity |
| QVQLVESGGGLVQAGGSLRLSCAASGSIFDYNGMGWYRQAPGKERELVATITLSTARTYYADSVKGRFTISRDNAKNTVYLQMNSLKPEDTAVYYCATRYPKFRRRNYWGQGTQVTVSS | high polyreactivity |
| QVQLVESGGGLVQAGGSLRLSCAASGSIFDYYAMGWYRQAPGKERELVAAISRSGSRTYYADSVKGRFTISRDNAKNTVYLQMNSLKPEDTAVYYCNAYLTLPYSNHAYYYWGQGTQVTVSS | high polyreactivity |
| QVQLVESGGGLVQAGGSLRLSCAASGSIFDYYAMGWYRQAPGKERELVASINSSGTGTFYADSVKGRFTISRDNAKNTVYLQMNSLKPEDTAVYSCATRQAVGYSSGRGYGYWGQGTQVTVSS | low polyreactivity |
| QVQLVESGGGLVQAGGSLRLSCAASGSIFDYYAMGWYRQAPGKERELVASITWSGGRTSYADSVKGRFTISRDNAKNTVYLQMNSLKPEDSAVYYCAAKLWSYAYQHKRVWYYYWGQGTQVTVSS | high polyreactivity |
| QVQLVESGGGLVQAGGSLRLSCAASGSIFDYYAMGWYRQAPGKERELVATISGGGGTTYYADSVKGRFTISRDNAKNTVYLQMNSLKPEDTAVYYCAAVSLGYNYWGQGTQVTVSS | low polyreactivity |
| QVQLVESGGGLVQAGGSLRLSCAASGSIFDYYGMGWYRQAPGKEGELVATISQGGDSSYYADSVKGRFTISRDNAKNTVYLQMNSLKPEDTAVYYCAALVPIYRWYKLYYWGQGTQVTLSS | low polyreactivity |

| Sequence | polyreactivity (PSR sort gate) |
| --- | --- |
| QVQLVESGGGLVQAGGSLRLSCAASGSIFDYYGMGWYRQAPGKERELVARITKRGGSTYYADSVMGRFTISRDNAKNTVYFQMNSLKPEDTAVYYCAAVVAYLFSGRGYRYNYWGQGTQVTLSS | high polyreactivity |
| QVQLVESGGGLVQAGGSLRLSCAASGSIFDYYTMGWYRQAPGKERELVAVIDNSGGSTYYADSVKGRFTISRDNAKNTVYLQMNSLKPEDTAVYYCARRFYNYVSYSNGGATLYDYWGQGTQVTVSS | high polyreactivity |
| QVQLVESGGGLVQAGGSLRLSCAASGSIFEAYAMGWYRQAPGKERELVAAITTAGGSTYYADSVKGRFTISRDNAKNTVYLQMNSLKPEETAVYYCARDYGKYKGYYWGQGTQVTVSS | low polyreactivity |
| QVQLVESGGGLVQAGGSLRLSCAASGSIFEAYAMGWYRQAPGKEREVVAVISWRGGRTYYADSVKGRFTISRDNAKNTVYLQMNSLNPEDTAVYYCNKAYWWHQVGLPRNYEYWGQGTQVTVSS | low polyreactivity |
| QVQLVESGGGLVQAGGSLRLSCAASGSIFEDYAMGWYRQAPGKERELVAAIDWGDGDTYYADSVKGRFTISRDNAKNTVYLQMNSLKPEDTAVYYCAADLVGYSGYYFDEEYYWGQGTQVTVSS | high polyreactivity |
| QVQLVESGGGLVQAGGSLRLSCAASGSIFEDYTMGWYRQAPGKERELVAAIDWSDASTFYADSVKGRFTISRDNAKNTVYLQMSLKPEDTAVYYCNVAIIFYDDDYWGQGTLVTVSS | high polyreactivity |
| QVQLVESGGGLVQAGGSLRLSCAASGSIFEGNAMGWDRQAPGKERELVASISGDGSTNYADSVKGRFTISRDNAKITVYLQMNCLKPEDTAVYYCAASFRWYGTVRYPYEMYYWGQGTQVTVSS | low polyreactivity |
| QVQLVESGGGLVQAGGSLRLSCAASGSIFEGNAMGWYREAPGKERELVASISGDGSTNYADSVKGRFTISRDNAKNTVYLQMNSLKPEDTAVYYCNADTISEPGFHMDYWGQGTQVTVSS | low polyreactivity |
| QVQLVESGGGLVQAGGSLRLSCAASGSIFEGNGMGWNRQEPGNVRELVAAITFRSGSTYYADSVKGRFTISRDNAKNSVYLQMNSLKPEDTAVYYCAADEYYQVSAYDYWGQGTQVTVSS | low polyreactivity |
| QVQLVESGGGLVQAGGSLRLSCAASGSIFEGNGMGWYRQAPGQERELVAAITFRSGSTYYADSVKGRFTISRDNAKNTVYLQMNSLKPEDTAVYYCAADEYYQGYAYDYWGQGTPVTVSS | low polyreactivity |
| QVQLVESGGGLVQAGGSLRLSCAASGSIFEGYVMGWYRQAPGKERELVATISFSGGSTYYADSVKGRFTISRDNAKNTVYLQMNSLKPEDTAVYYSAAAGVYYGVRGTTYAYDYWGQGTQVTVSS | low polyreactivity |
| QVQLVESGGGLVQAGGSLRLSCAASGSIFEHYAMGWYRQAPGKERELVATISSASRTNYADSVKGRFTISRDNAKNTVYLQMNSLKPEDTAVYYCAARFYYVWYGPYYYWGQGTQVTVSS | high polyreactivity |
| QVQLVESGGGLVQAGGSLRLSCAASGSIFEQYAMGGSRPAPGKERELVAAISKRGTSTYYADSVKGRFTISRDTPKNTVYLNMNSLKPEDTAVYYCAATNRWYYRAAADVYAFGYWGQGTQVTVSS | high polyreactivity |
| QVQLVESGGGLVQAGGSLRLSCAASGSIFERNAMGWYRQAPGKERELVAAISDDDGSTYYADSVKGRFTISRDNAKNTVYLQMNSLKPEDTAVYYCNAYSHFGSFYPFDYWGQGTQVTVSS | low polyreactivity |
| QVQLVESGGGLVQAGGSLRLSCAASGSIFERYAMGWYRQAPGKERELVAAISWSGGRTYYADSVKGRFTISRDYAKNTFFLQMNSLNPEDTAVYYCARVVQPGSPIYDYWGQGTQVTVSS | high polyreactivity |

From the nanobody polyreactivity screen of Harvey et al. (2022)
